Results taken from the supplement of paper PMC9732359.
± gives the uncertainty stated by the source.

Test: protein stability index of a GFP-peptide fusion (yeast GPS) (PSI 1-4); higher = more stable; sorted into four equal gates, so the index is relative within each strain
How it was run: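 Sequencing reads from sorted gates were used to score each peptide. The library consisted of tiled 17-residue yeast protein peptides fused downstream of GFP on a Cherry-expressing plasmid, pooled and carried in yeast. Mid-log cultures in leucine-free medium were split into four equal gates by GFP/Cherry ratio, and each gate's plasmids were PCR-amplified and Illumina-sequenced. The protein stability index adds up, over all gates, the read frequency multiplied by the gate number.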

Sequence | protein stability index (doa10∆) | protein stability index (pdr5∆) | protein stability index (san1∆) | protein stability index (ubr1∆)
LEQIQVQLKDANSQIQA [YIL149C/MLP2] | 2.55 ± 0.12 | 2.41 ± 0.27 | 2.45 ± 0.21 | 2.43 ± 0.15
KVSSASAAASESDVAKQ [RPL16B] | 2.93 ± 0.067 | 2.79 ± 0.055 | 2.04 ± 0.09 | 2.97 ± 0.065
TSQYGTPSTETAASVFK [PRE3] | 1.71 ± 0.046 | 2.29 ± 0.042 | 2.1 ± 0.047 | 2.27 ± 0.045
GCLHKGKLISNLSSTPM [YML031W/NDC1] |  | 1.81 ± 0.16 |  | 2.05 ± 0.19
NLPEEERKQIHEFKLIV [GRR1] | 2.13 ± 0.29 | 3.35 ± 0.24 |  | 2.73 ± 0.13
LERYVKRCMDDLNPLKT [RPO31] | 3.08 ± 0.078 | 3.15 ± 0.058 | 3.27 ± 0.043 | 3.16 ± 0.041
DAGKIDKHLYHVLYKES [RPL19A] | 3.25 ± 0.24 | 3.12 ± 0.2 | 2.7 ± 0.091 | 2.89 ± 0.083
NRTKSTTIKNIDILNRT [SMC4] | 2.15 ± 0.046 | 2.55 ± 0.043 | 2.38 ± 0.062 | 2.53 ± 0.041
NGVRALFHSCTRIQYVD [GRR1] | 2.08 ± 0.088 | 2.31 ± 0.055 | 1.86 ± 0.068 | 2.59 ± 0.051
AVSAASVVSMSNDVLKP [SIR2] | 2.5 ± 0.048 | 3.11 ± 0.064 | 2.82 ± 0.063 | 2.75 ± 0.04
KSFTNDKIPLNYAMTRN [SRB5] | 2.8 ± 0.13 | 2.55 ± 0.1 | 2.45 ± 0.06 | 2.67 ± 0.069
CIIFMDEVDAIGGRRFS [RPT4] | 2.38 ± 0.089 | 2.13 ± 0.075 | 2.88 ± 0.1 | 2.43 ± 0.099
YHGNECEINYYEILLKI [SRB8] | 1.66 ± 0.055 | 2.86 ± 0.082 | 2.24 ± 0.089 | 2.4 ± 0.082
VSDDESNGEVLEVGKNN [RPN14] | 3.19 ± 0.1 | 2.99 ± 0.16 | 3.07 ± 0.16 | 3.24 ± 0.056
NEDDALIYGISDEERDD [AAR2] | 3.29 ± 0.12 | 3.53 ± 0.13 | 3.62 ± 0.066 | 3.2 ± 0.12
QQQSSQNTVPNVLNQIN [GAL11] | 1.66 ± 0.063 | 1.82 ± 0.053 | 1.71 ± 0.078 | 2.01 ± 0.042
IQKESTLHLVLRLRGGG [RPS31] | 2.64 ± 0.12 | 2.31 ± 0.067 | 1.75 ± 0.096 | 2.45 ± 0.066
SSFSLTFFPRCIIAVSC [POP1] | 1.93 ± 0.029 | 1.86 ± 0.035 | 2.07 ± 0.054 | 2.03 ± 0.037
EYKKHFPPNLEKGENPS [UBP6] | 2.9 ± 0.097 | 2.76 ± 0.055 | 2.42 ± 0.073 | 1.93 ± 0.053
KSSWRQEWLANLKLISV [SIR4] | 1.71 ± 0.057 | 1.45 ± 0.042 | 1.64 ± 0.16 | 1.46 ± 0.045
GVEVRVTPTKTEVIIRA [RPS3] | 1.75 ± 0.048 | 1.73 ± 0.047 | 2.55 ± 0.071 | 1.57 ± 0.036
AFVPKKRKTNIIMFVGL [SRP54] | 2.03 ± 0.1 | 2.16 ± 0.088 | 1.86 ± 0.18 | 2.26 ± 0.051
IVFDNTDKSNSPIGFTN [SMC2] | 3.1 ± 0.049 | 3.15 ± 0.063 | 3.15 ± 0.052 | 2.96 ± 0.068
NDFTTKLINIKKFDISN [MED1] | 1.67 ± 0.08 | 1.47 ± 0.096 | 1.56 ± 0.28 | 2.28 ± 0.27
NMLPQRQSSVGSLNATN [SNF2] | 2.8 ± 0.082 | 3.3 ± 0.073 | 2.78 ± 0.052 | 3.08 ± 0.046
NGASVPINLHPSKLVIT [RPL26A] | 1.75 ± 0.058 | 1.83 ± 0.06 | 1.96 ± 0.067 | 1.41 ± 0.05
KRSFSSTLKSFFTNPNK [YOR098C/NUP1] | 2.39 ± 0.039 | 2.31 ± 0.04 | 2.32 ± 0.052 | 2.28 ± 0.033

Sequence | protein stability index (doa10∆) | protein stability index (pdr5∆) | protein stability index (san1∆) | protein stability index (ubr1∆)
KLPLLNESLIPLINLAL [YML103C/NUP188] | 1.69 ± 0.061 | 2.16 ± 0.068 | 1.73 ± 0.079 | 1.98 ± 0.054
ADTLDPALLRPGRLDRK [RPT3] | 3.57 ± 0.17 | 3.56 ± 0.16 | 3.26 ± 0.23 | 3.3 ± 0.2
HGSIIILGMLSLADNEI [YCS4] | 1.99 ± 0.069 | 2.04 ± 0.069 | 2.05 ± 0.1 | 2.25 ± 0.075
FVDLNEKELQNEIKQLG [SRB4] | 2.31 ± 0.072 | 2.41 ± 0.17 | 2.13 ± 0.2 | 2.78 ± 0.14
KNDDNSCRNPEHTDVID [YIL149C/MLP2] | 3.03 ± 0.15 | 2.75 ± 0.099 | 2.98 ± 0.093 | 2.97 ± 0.086
ICMESLFLEPSWSSSAA [PCI8] |  | 2.86 ± 0.12 | 2.63 ± 0.15 | 3.17 ± 0.11
TNLGQPHSLATKTTGKC [RPS2] | 2.44 ± 0.13 | 2.69 ± 0.13 | 2.38 ± 0.088 | 2.5 ± 0.11
FEYVLYPSKTLKTDGVR [FAS2] | 2.42 ± 0.08 | 2.96 ± 0.069 | 2.26 ± 0.099 | 2.75 ± 0.081
IKNLGLPSDRCSKAMGD [RPP1] | 3.36 ± 0.19 | 3.32 ± 0.13 | 3.25 ± 0.23 | 
LQKALTVKTNDELMVIY [RPN8] | 2.33 ± 0.11 | 1.89 ± 0.067 | 1.84 ± 0.13 | 2.65 ± 0.061
QDKEGIPPDQQRLIFAG [RPS31] | 2.95 ± 0.068 | 2.8 ± 0.057 | 3.19 ± 0.035 | 3.15 ± 0.033
QDISSSTRVEFEKLYSD [FAS2] |  | 3.05 ± 0.24 | 3.27 ± 0.14 | 
LENMPHPWEQAKEVKVL [PRP8] | 2.7 ± 0.23 | 2.9 ± 0.17 | 3.09 ± 0.1 | 2.94 ± 0.093
GVDNLRRMGILKKILDQ [RPO31] | 2.48 ± 0.1 | 2.7 ± 0.11 | 2.4 ± 0.083 | 2.96 ± 0.04
EMARTKKACIIFFDEID [RPT1] | 2.14 ± 0.062 | 2.5 ± 0.068 | 2.54 ± 0.083 | 2.56 ± 0.047
LLISYGVSIENENKVII [SRB4] | 2.1 ± 0.096 | 2.36 ± 0.14 | 3.13 ± 0.092 | 2.93 ± 0.12
QREDKLKSHYYQTCKNS [SMC2] | 1.24 ± 0.073 | 1.25 ± 0.057 | 1.63 ± 0.071 | 1.42 ± 0.054
VLISKLSCEKITHYAVR [RRI1] | 1.45 ± 0.046 | 1.64 ± 0.051 | 1.66 ± 0.07 | 1.67 ± 0.039
NQVMMDRKIQGWLGALT [ARP7] | 2.84 ± 0.069 | 3.18 ± 0.052 | 3 ± 0.054 | 2.98 ± 0.044
MRILSNDITNLQLSKTP [SRB8] | 2.59 ± 0.058 | 2.71 ± 0.08 | 2.92 ± 0.052 | 2.8 ± 0.046
LNVGNVLPLGSVPEGTI [RPL2A] | 3.2 ± 0.077 | 3.15 ± 0.082 | 3.26 ± 0.1 | 3.28 ± 0.061
MKVEIDSFSGAKIYPGR [RPL24A] | 3.35 ± 0.072 | 3.45 ± 0.12 | 3.25 ± 0.08 | 3.22 ± 0.1
INSAPDFTQEDELRKQE [ISW2] | 3.24 ± 0.084 | 3.52 ± 0.068 | 3.4 ± 0.062 | 3.46 ± 0.057
STKKKILGIHTSKMNLS [RPT2] | 3.47 ± 0.13 | 3.21 ± 0.096 | 3.42 ± 0.071 | 3.05 ± 0.073
ETLVLSYFSPINSSNEA [YCG1] | 2.67 ± 0.096 | 1.55 ± 0.087 | 1.25 ± 0.19 | 2.13 ± 0.055
ISHDDLQAVAVAVSTKK [FAS2] | 1.47 ± 0.29 | 1.48 ± 0.099 | 1.19 ± 0.12 | 1.32 ± 0.23
ETVKLPRVSNQSNEDTF [RRI2] | 3.06 ± 0.13 | 3.22 ± 0.14 | 2.94 ± 0.19 | 3.24 ± 0.1
